System: CLDN6-LLC1
Assay: CLDN6-LLC1 syngenic model, CS4135 single agent
Type: in vivo, hCD137 KI/hCD3Tg mice
Protocol: In this test, lung cancer cell line LLC1 forced to express claudin 6 (CLDN6) (CLDN6-LLC1) and hCD137 KI/hCD3Tg mice (described in the above-mentioned Example 7) were used. The CLDN6-LLC1 cell line was transplanted subcutaneously to the right flank of the mice, and the mice were divided into groups 7 days after transplantation. Individuals whose tumor volume reached 262 to 353 mm^3 were divided into groups. The vehicle and CS4135 were administered into the mouse tail vein 8 days after transplantation. PBS containing 0.05% Tween-20 was used as the vehicle.
Tumor volume was measured 7, 10, and 14 days after transplantation, and the average tumor volume was indicated for each group. The tumor volume was calculated by the following equation: […]
Tumor Growth Inhibition (TGI) was calculated by the following equation: […]
The resected tumor tissue was weighed, and then a lymphocyte fraction was isolated. The lymphocyte fraction obtained by tissue disruption using a Tumor Dissociation Kit, mouse (Miltenyi Biotec) and then by use of a cell strainer was used. The obtained tumor-derived lymphocyte fraction was subjected to flow cytometry (FCM) analysis.
FCM was used to analyze the number of tumor-derived T cells. The number of CD8-positive T cells per tumor weight was calculated using the tumor weight value and the number of CD8-positive T cells according to FCM. […]

B1: PPU4135: anti-CLDN6/Dual-Fab tri-specific antibody, chains SEQ ID NOs 42, 51, 56, 69; CS4135 same antibody (protein)
chain 1: QVQLVESGGGVVQPGGSLRLSCAASGFTFSSYTMSWVRQAPGQGLEWMGTISSGGGRTYYPDSVKGRFTISRDNSKNTLYLQMNSLRDEDTAVYYCARGDYRYDGFAYWGEGTLVTVSSASTKGPSVFPLAPSSKSTSGGTAALGCLVEDYFPEPVTVSWNSGALTSGVHTFPAVLESSGLYSLSSVVTVPSSSLGTQTYICNVNHKPSNTKVDKRVEPKSCDKTHTCPPCPAPEAAGGPSVFLFPPKPKDTLMISRTPEVTCVVVDVSHEDPEVKFNWYVDGVEVHNAKTKPREEQYASTYRVVSVLTVLHQDWLNGKEYKCKVSNKALPAPIEKTISKAKGQPREPQVYTLPPSREEMTKNQVSLTCLVKGFYPSDIAVEWESNGQPENNYKTTPPVLDSDGSFFLYSKLTVDKSRWQQGNVFSCSVMHEALHNHYTQESLSLSP
chain 2: DIQMTQSPSSLSASVGDRVTITCRASYNIDSYLAWYQQKPGKAPELLIYYSTLLVDGVPDRFSGSRSGTDFTLTISSLQPEDFATYYCQHYYSIPYTFGQGTKVEIERTVAAPSVFIFPPSDEQLKSGTAKVVCLLNNFYPREAKVQWKVDNALQSGNSKESVTEQDSKDSTYSLSSTLTLSKADYEKHKVYACEVTHQGLSSPVTKSFNRGEC
chain 3: QVQLVESGGGLVQPGRSLRLSCAASGFKFSNVWFHWVRQAPGKGLEWVAQIKDYYNAYAAYYAPSVKGRFTISRDDSKNSIYLQMNSLKTEDTAVYYCHYVHYASASTLLPAEGVDAWGQGTTVTVSSASTKGPSVFPLAPSSKSTSGGTAALGCLVKDYFPEPVTVSWNSGALTSGVHTFPAVLKSSGLYSLSSVVTVPSSSLGTQTYICNVNHKPSNTKVDKRVEPKSCDKTHTCPPCPAPEAAGGPSVFLFPPKPKDTLMISRTPEVTCVVVDVSHEDPEVKFNWYVDGVEVHNAKTKPREEQYASTYRVVSVLTVLHQDWLNGKEYKCKVSNKALPAPIEKTISKAKGQPREPQVYTLPPSRKEMTKNQVSLTCLVKGFYPSDIAVEWESNGQPENNYKTTPPVLDSDGSFFLYSKLTVDKSRWQQGNVFSCSVMHEALHNHYTQKSLSLSP
chain 4: DIVMTQSPLSLPVTPGEPASISCQPSQEVVHMNRNTYLHWYQQKPGQAPRLLIYKVSNRFPGVPDRFSGSGSGTDFTLKISRVEAEDVGVYYCAQGTSHPFTFGQGTKLEIKRTVAAPSVFIFPPSDEQLKSGTAEVVCLLNNFYPREAKVQWKVDNALQSGNSEESVTEQDSKDSTYSLSSTLTLSKADYEKHKVYACEVTHQGLSSPVTKSFNRGEC
For B1, the “Tumor growth inhibition: TGI” value (14 days after transplantation, 0.25 mg/kg iv day 8) was 71% and the “number of CD8-positive T cells per tumor weight” value (14 days after tumor transplantation (Day 6 after administration), 0.25 mg/kg) was “significant increase”.

Reference: patent US20240425589A1, “CYTOTOXICITY-INDUCING THERAPEUTIC AGENT FOR USE IN TREATMENT OF CANCER” (CHUGAI SEIYAKU KABUSHIKI KAISHA, priority 2021, published 2024)
